According to paper PMC7814660 (Nature, 2020):
Changes are numbered by the printed parent chain. Names may count otherwise.

Assays:
cryo-EM structure [1] = molecular target: the molecule itself; experiment: cryo-EM structure
[2] = whole-cell patch clamp, CBX-sensitive current density, +80 mV; details: glycan lost; control: wild type
[3] = cryo-EM structure superimposition of subunits; details: glycan lost; control: wild type
cryo-EM structure [4] = molecular target: the molecule itself; experiment: cryo-EM structure; remark: listed apart in the source

B1: caspase 7-cleaved human Pannexin 1 (ΔCTT-hsPANX1) (domain or fragment, UniProt Q96RD7 1-379, looked up)
chain: MAIAQLATEYVFSDFLLKEPTEPKFKGLRLELAVDKMVTCIAVGLPLLLISLAFAQEISIGTQISCFSPSSFSWRQAAFVDSYCWAAVQQKNSLQSESGNLPLWLHKFFPYILLLFAILLYLPPLFWRFAAAPHICSDLKFIMEELDKVYNRAIKAAKSARDLDMRDGACSVPGVTENLGQSLWEVSESHFKYPIVEQYLKTKKNSNNLIIKYISCRLLTLIIILLACIYLGYYFSLSSLSDEFVCSIKSGILRNDSTVPDQFQCKLIAVGIFQLLSVINLVVYVLLAPVVVYTLFVPFRQKTDVLKVYEILPTFDVLHFKSEGYNDLSLYNLFLEENISEVKSYKCLKVLENIKSSGQGIDPMLLLTNLGMIKMDVVD
cryo-EM structure [1]
  binding result: binds

B2: Pannexin 1 (hsPANX1): N255A (protein)
parent chain: MAIAQLATEYVFSDFLLKEPTEPKFKGLRLELAVDKMVTCIAVGLPLLLISLAFAQEISIGTQISCFSPSSFSWRQAAFVDSYCWAAVQQKNSLQSESGNLPLWLHKFFPYILLLFAILLYLPPLFWRFAAAPHICSDLKFIMEELDKVYNRAIKAAKSARDLDMRDGACSVPGVTENLGQSLWEVSESHFKYPIVEQYLKTKKNSNNLIIKYISCRLLTLIIILLACIYLGYYFSLSSLSDEFVCSIKSGILRNDSTVPDQFQCKLIAVGIFQLLSVINLVVYVLLAPVVVYTLFVPFRQKTDVLKVYEILPTFDVLHFKSEGYNDLSLYNLFLEENISEVKSYKCLKVLENIKSSGQGIDPMLLLTNLGMIKMDVVDGKTPMSAEMREEQGNQTAELQGMNIDSETKANNGEKNARQRLLDSSC
[2]
  other: channel current: changes
[3]
  structure_or_conformation: changes

B3: glycosylation-deficient mutant N255A of human Pannexin 1 (N255A-hsPANX1) (natural protein, UniProt Q96RD7 1-426, looked up)
chain: B2 parent chain with N255A
cryo-EM structure [4]
  ratio of gap junctions to hemichannels: ~0.2 gap junctions : hemichannels

B4: wild type human Pannexin 1 (wt-hsPANX1) (natural protein, UniProt Q96RD7 1-426, looked up)
chain: B2 parent chain
modifications: N-glycosylated at N255 (N-acetylglucosamine modelled)
cryo-EM structure [1]
  stoichiometry N: 7
